Test results published in patent publication US20050282743A1, “Molecular interactions in cells” (Arbor Vita Corporation, priority 2001, published 2005).

T1: GST-AF6 PDZ domain 1 (Homo sapiens (Human)), P55196
T1 chain: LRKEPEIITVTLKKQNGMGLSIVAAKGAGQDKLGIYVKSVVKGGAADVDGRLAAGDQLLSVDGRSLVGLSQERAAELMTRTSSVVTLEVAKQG

T2: GST-APXL-1 PDZ domain 1 (Homo sapiens (Human)), Q13796
T2 chain: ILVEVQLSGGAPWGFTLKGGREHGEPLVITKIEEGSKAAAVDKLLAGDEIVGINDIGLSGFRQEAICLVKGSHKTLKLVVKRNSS

T3: GST-ENIGMA PDZ domain 1 (Homo sapiens (Human)), Q9NR12
T3 chain: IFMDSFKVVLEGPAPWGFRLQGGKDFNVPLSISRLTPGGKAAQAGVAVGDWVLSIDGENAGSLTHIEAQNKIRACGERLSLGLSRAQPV

T4: GST-LIM Protein PDZ domain 1 (Homo sapiens (Human)), Q96HC4
T4 chain: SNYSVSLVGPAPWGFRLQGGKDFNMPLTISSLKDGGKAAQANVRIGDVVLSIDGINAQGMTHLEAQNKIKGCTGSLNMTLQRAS

T5: GST-LIM-RIL PDZ domain 1 (Homo sapiens (Human)), P50479
T5 chain: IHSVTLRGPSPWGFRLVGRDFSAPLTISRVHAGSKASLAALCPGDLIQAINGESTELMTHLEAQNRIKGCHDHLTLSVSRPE

T6: GST-AIPC PDZ domain 1 (Homo sapiens (Human)), O15018
T6 chain: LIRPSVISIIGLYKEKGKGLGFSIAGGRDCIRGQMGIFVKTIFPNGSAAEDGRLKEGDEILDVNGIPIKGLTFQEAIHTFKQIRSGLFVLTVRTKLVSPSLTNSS

T7: GST-DVL2 PDZ domain 1 (Homo sapiens (Human)), O14641
T7 chain: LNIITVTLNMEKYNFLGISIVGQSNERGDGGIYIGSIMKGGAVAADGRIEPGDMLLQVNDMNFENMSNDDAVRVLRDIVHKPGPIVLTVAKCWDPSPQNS

T8: GST-FLJ 10324 PDZ domain 1 [GST: P08515]
T8 chain: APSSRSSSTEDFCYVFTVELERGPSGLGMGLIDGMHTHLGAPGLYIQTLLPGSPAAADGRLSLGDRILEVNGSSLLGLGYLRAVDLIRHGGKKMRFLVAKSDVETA

T9: GST-HEMBA 1003117 PDZ domain 1 (Homo sapiens (Human)), Q96JH8
T9 chain: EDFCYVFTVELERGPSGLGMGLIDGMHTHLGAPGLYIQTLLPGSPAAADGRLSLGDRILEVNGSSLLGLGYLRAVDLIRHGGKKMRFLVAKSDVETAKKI

T10: GST-KIAA0382 PDZ domain 1 (Canis lupus familiaris (Dog) (Canis familiaris)), A0A8I3
T10 chain: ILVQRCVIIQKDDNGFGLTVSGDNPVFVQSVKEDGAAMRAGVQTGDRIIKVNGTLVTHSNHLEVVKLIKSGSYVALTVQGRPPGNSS

T11: GST-KIAA0807(S) PDZ domain 1 (Homo sapiens (Human)), Q6P0Q8
T11 chain: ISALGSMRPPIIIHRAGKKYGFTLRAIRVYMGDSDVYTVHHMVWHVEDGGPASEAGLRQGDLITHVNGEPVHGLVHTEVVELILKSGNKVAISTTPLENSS

T12: GST-MINT1 PDZ domain 1 (Mus musculus (Mouse)), B2RUJ5
T12 chain: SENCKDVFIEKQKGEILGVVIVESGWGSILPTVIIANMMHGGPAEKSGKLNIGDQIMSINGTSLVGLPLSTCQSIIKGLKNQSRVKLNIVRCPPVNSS

T13: GST-MINT1 PDZ domain 2 (Mus musculus (Mouse)), B2RUJ5
T13 chain: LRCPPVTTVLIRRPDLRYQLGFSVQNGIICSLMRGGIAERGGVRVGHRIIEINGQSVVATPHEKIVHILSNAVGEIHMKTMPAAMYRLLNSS

T14: GST-MINT1 PDZ domains 1, 2, Q02410
T14 chain: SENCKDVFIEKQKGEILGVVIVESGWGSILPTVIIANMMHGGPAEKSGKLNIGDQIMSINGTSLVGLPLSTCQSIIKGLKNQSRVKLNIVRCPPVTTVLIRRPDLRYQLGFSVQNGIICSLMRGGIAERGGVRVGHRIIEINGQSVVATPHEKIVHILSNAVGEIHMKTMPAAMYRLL

T15: GST-MUPP1 PDZ domain 11 (Homo sapiens (Human)), O75970
T15 chain: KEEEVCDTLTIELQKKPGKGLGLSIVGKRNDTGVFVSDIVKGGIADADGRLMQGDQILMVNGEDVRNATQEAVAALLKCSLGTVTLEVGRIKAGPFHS

T16: GST-MUPP1 PDZ domain 2 (Homo sapiens (Human)), O75970
T16 chain: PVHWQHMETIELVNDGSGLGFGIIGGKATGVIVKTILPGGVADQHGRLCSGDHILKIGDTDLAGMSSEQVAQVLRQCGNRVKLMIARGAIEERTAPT

T17: GST-MUPP1 PDZ domain 3 (Homo sapiens (Human)), O75970
T17 chain: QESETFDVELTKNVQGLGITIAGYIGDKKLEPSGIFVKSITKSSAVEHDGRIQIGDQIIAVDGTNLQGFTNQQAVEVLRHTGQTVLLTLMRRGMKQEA

T18: GST-MUPP1 PDZ domain 7 (Homo sapiens (Human)), O75970
T18 chain: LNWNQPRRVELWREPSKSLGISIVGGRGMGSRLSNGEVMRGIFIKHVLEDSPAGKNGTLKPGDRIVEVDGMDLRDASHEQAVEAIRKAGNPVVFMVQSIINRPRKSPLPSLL

T19: GST-MUPP1 PDZ domain 9 (Homo sapiens (Human)), O75970
T19 chain: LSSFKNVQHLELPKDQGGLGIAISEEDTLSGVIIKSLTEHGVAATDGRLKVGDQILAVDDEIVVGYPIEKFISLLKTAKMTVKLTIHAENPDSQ

T20: GST-PTPL1 PDZ domain 4 (Homo sapiens (Human)), Q12923
T20 chain: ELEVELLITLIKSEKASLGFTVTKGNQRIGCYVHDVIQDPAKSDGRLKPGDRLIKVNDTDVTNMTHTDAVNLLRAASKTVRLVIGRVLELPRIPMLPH

T21: GST-SYNTENIN PDZ domain 1 (Homo sapiens (Human)), O00560
T21 chain: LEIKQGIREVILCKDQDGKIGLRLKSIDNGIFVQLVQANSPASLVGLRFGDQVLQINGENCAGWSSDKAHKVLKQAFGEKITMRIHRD

T22: GST-ZO-3 PDZ domain 3 (Homo sapiens (Human)), O95049
T22 chain: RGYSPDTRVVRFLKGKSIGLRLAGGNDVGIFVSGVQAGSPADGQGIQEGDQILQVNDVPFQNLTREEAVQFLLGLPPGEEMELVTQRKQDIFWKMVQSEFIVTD

T23: GST-GRIP 1 PDZ domain 6 (Mus musculus (Mouse)), Q925T6
T23 chain: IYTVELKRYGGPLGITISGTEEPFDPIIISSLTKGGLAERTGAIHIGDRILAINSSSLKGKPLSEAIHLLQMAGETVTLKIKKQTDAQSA

T24: GST-KIAA0973 PDZ domain 1 (Homo sapiens (Human)), Q9Y2H9
T24 chain: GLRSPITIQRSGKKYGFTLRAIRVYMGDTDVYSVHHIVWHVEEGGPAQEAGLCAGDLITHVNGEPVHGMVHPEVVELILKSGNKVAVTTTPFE

T25: GST-KIAA1719 PDZ domain 3 (Homo sapiens (Human)), Q9C0E4
T25 chain: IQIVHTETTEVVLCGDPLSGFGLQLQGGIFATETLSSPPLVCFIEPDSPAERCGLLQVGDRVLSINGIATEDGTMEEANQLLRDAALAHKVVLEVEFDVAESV

T26: GST-KIAA1719 PDZ domain 6 (Homo sapiens (Human)), Q9C0E4
T26 chain: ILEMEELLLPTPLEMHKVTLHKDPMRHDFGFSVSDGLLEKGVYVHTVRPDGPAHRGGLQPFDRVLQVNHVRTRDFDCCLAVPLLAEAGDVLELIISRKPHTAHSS

T27: GST-Shank 1 PDZ domain 1 (Homo sapiens (Human)), Q9UPX8
T27 chain: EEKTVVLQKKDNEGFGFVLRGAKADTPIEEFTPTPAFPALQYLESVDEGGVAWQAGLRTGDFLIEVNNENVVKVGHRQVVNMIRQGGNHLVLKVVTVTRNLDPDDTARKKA

T28: GST-X-11 beta PDZ domain 2 (Rattus norvegicus (Rat)), O35431
T28 chain: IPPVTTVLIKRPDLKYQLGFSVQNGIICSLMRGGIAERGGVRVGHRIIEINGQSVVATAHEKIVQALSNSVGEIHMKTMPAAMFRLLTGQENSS

T29: GST-KIAA0561 PDZ domain 1 (Homo sapiens (Human)), O60307
T29 chain: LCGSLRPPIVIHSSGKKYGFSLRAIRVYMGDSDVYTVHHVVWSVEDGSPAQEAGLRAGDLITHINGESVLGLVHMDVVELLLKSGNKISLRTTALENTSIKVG


How the values were obtained:
Assay in all cases: G' assay
[1] = target: T1, GST-AF6 PDZ domain 1 (Homo sapiens …)
[2] = target: T2, GST-APXL-1 PDZ domain 1 (Homo sapiens …)
[3] = target: T3, GST-ENIGMA PDZ domain 1 (Homo sapiens …)
[4] = target: T4, GST-LIM Protein PDZ domain 1 (Homo …)
[5] = target: T5, GST-LIM-RIL PDZ domain 1 (Homo sapiens …)
[6] = target: T6, GST-AIPC PDZ domain 1 (Homo sapiens …)
[7] = target: T7, GST-DVL2 PDZ domain 1 (Homo sapiens …)
[8] = target: T8, GST-FLJ 10324 PDZ domain 1 [GST: P08515]
[9] = target: T9, GST-HEMBA 1003117 PDZ domain 1 (Homo …)
[10] = target: T10, GST-KIAA0382 PDZ domain 1 (Canis lupus …)
[11] = target: T11, GST-KIAA0807(S) PDZ domain 1 (Homo …)
[12] = target: GST-KIAA1222 PDZ domain 1 (Rattus norvegicus (Rat)), O35867
Chain of GST-KIAA1222 PDZ domain 1 (Rattus norvegicus (Rat)), O35867 (O35867 499-598, tags or fused parts left off): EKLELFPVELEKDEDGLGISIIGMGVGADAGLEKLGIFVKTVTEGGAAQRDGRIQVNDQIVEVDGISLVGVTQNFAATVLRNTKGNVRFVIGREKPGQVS

[13] = target: GST-KIAA807 [GST: P08515]
Chain of GST-KIAA807 [GST: P08515] (P08515 whole entry, the tested form may be a part): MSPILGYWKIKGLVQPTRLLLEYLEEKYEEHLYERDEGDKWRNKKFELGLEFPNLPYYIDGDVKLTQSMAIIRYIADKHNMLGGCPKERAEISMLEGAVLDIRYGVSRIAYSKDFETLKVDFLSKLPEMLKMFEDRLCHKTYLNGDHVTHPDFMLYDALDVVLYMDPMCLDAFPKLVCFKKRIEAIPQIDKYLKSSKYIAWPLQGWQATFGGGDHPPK

[14] = target: T12, GST-MINT1 PDZ domain 1 (Mus musculus …)
[15] = target: T13, GST-MINT1 PDZ domain 2 (Mus musculus …)
[16] = target: T14, GST-MINT1 PDZ domains 1, 2, Q02410
[17] = target: T15, GST-MUPP1 PDZ domain 11 (Homo sapiens …)
[18] = target: T16, GST-MUPP1 PDZ domain 2 (Homo sapiens …)
[19] = target: T17, GST-MUPP1 PDZ domain 3 (Homo sapiens …)
[20] = target: T18, GST-MUPP1 PDZ domain 7 (Homo sapiens …)
[21] = target: T19, GST-MUPP1 PDZ domain 9 (Homo sapiens …)
[22] = target: GST-PAR3 PDZ domain 3 (Homo sapiens (Human)), Q8TEW0
Chain of GST-PAR3 PDZ domain 3 (Homo sapiens (Human)), Q8TEW0 (Q8TEW0 579-681): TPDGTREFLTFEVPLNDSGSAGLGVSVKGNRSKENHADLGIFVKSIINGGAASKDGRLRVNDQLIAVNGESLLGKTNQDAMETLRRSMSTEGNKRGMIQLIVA

[23] = target: T20, GST-PTPL1 PDZ domain 4 (Homo sapiens …)
[24] = target: T21, GST-SYNTENIN PDZ domain 1 (Homo sapiens …)
[25] = target: T22, GST-ZO-3 PDZ domain 3 (Homo sapiens …)
[26] = target: GST-BAI-1 Associated Protein PDZ domain 2 (Mus musculus (Mouse)), Q6RHR9
Chain of GST-BAI-1 Associated Protein PDZ domain 2 (Mus musculus (Mouse)), Q6RHR9 (Q6RHR9 455-558): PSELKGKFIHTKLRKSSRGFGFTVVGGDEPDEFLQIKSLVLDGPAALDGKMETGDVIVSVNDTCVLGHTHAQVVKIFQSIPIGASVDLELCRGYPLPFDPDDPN

[27] = target: T23, GST-GRIP 1 PDZ domain 6 (Mus musculus …)
[28] = target: T24, GST-KIAA0973 PDZ domain 1 (Homo sapiens …)
[29] = target: GST-KIAA1634 PDZ domain 1 (Homo sapiens (Human)), Q5TCQ9
Chain of GST-KIAA1634 PDZ domain 1 (Homo sapiens (Human)), Q5TCQ9 (Q5TCQ9 401-502): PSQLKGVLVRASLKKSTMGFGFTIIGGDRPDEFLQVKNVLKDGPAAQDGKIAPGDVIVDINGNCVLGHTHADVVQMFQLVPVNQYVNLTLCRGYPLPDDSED

[30] = target: T25, GST-KIAA1719 PDZ domain 3 (Homo sapiens …)
[31] = target: T26, GST-KIAA1719 PDZ domain 6 (Homo sapiens …)
[32] = target: T27, GST-Shank 1 PDZ domain 1 (Homo sapiens …)
[33] = target: T28, GST-X-11 beta PDZ domain 2 (Rattus …)
[34] = target: GST-KIAA0316 PDZ domain 1 (Homo sapiens (Human)), Q14CM0
Chain of GST-KIAA0316 PDZ domain 1 (Homo sapiens (Human)), Q14CM0 (Q14CM0 72-159): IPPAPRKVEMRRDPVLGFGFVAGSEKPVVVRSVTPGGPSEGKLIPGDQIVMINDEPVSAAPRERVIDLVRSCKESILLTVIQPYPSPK

[35] = target: T29, GST-KIAA0561 PDZ domain 1 (Homo sapiens …)
Further: key of the grades not given here.

Binder | Classification [1] | Classification [2] | Classification [4] | Classification [7] | Classification [8] | Classification [11] | Classification [13] | Classification [15] | Classification [16] | Classification [17] | Classification [19] | Classification [22] | Classification [28] | also measured
YSATYSELEDPGEMSPPIDL (modifications not checked) [FceRlb] | 2 A450 class | 1 A450 class | 2 A450 class | – | – | – | – | – | – | – | – | – | – | Classification [3]: 2 A450 class; Classification [5]: 1 A450 class
ALVLIAFCIIRRRPSAYQAL (modifications not checked) [CD68] | – | 2 A450 class | – | 2 A450 class | 1 A450 class | 5 A450 class | – | 2 A450 class | 1 A450 class | – | – | – | 1 A450 class | Classification [26]: 3 A450 class; Classification [27]: 1 A450 class; Classification [29]: 2 A450 class; Classification [30]: 1 A450 class; Classification [31]: 1 A450 class; Classification [32]: 1 A450 class; Classification [33]: 1 A450 class

The next lines start with results.

Classification [1] | Classification [2] | Classification [4] | Classification [7] | Classification [8] | Classification [11] | Classification [13] | Classification [15] | Classification [16] | Classification [17] | Classification [19] | Classification [22] | Classification [28] | Binder | also measured
– | – | – | 2 A450 class | 4 A450 class | 4 A450 class | 3 A450 class | 1 A450 class | 5 A450 class | 5 A450 class | 1 A450 class | 5 A450 class | – | KTMPAAMFRLLTGQETPLYI (modifications not checked) [MINT-2] | Classification [6]: 1 A450 class; Classification [9]: 3 A450 class; Classification [10]: 1 A450 class; Classification [12]: 1 A450 class; Classification [14]: 2 A450 class; Classification [18]: 1 A450 class; Classification [20]: 1 A450 class; Classification [21]: 1 A450 class; Classification [23]: 4 A450 class; Classification [24]: 2 A450 class; Classification [25]: 1 A450 class
1 A450 class | – | 1 A450 class | 1 A450 class | – | 1 A450 class | 1 A450 class | 2 A450 class | 2 A450 class | 2 A450 class | 1 A450 class | 1 A450 class | 2 A450 class | KTMPAATYRLLTGQEQPVYL (modifications not checked) [MINT-3] | Classification [34]: 2 A450 class; Classification [35]: 1 A450 class
